Experimental data from article PMC3992933 (Peptides, 2014).
No end group written: not given here.

Legend:
[1] = biological target: human serum albumin (HSA) (Homo sapiens, UniProt P02768); experiment: SPR spectroscopy, HBD binding to immobilized human serum albumin; conditions: in terms of absolute response and kinetic shape of binding
[2] = test system: immobilized adhesins from the periodontal pathogen Porphyromonas gingivalis; conditions: ref [2], [5], [18]; cited from earlier work
[3] = test system: immobilized P. gingivalis hemagglutinin B (HagB); conditions: ref [2]; cited from earlier work
[4] = biological target: Bla g2 from the German cockroach (Blattella germanica) (Blattella germanica); experiment: SPR

## HBD1: human β-defensin used as a control β-defensin; purchased from PeproTech, Inc. (DHYNCVSSGGQCLYSACPIFTKIQGTCYRGKAKCCK; ends and bridges not checked; cysteine pairing not given here)
[1]
  binding to HSA compared with Bla g2 (in words): bound to immobilized HSA similar to Bla g2

## histatin 5
[2]
  binding to immobilized adhesins from P. gingivalis (in words): specifically bind
[3]
  binding to immobilized HagB (in words): bind specifically

## GIINTLQKYYCRVRGGRCAVLSCLPKEEQIGKCSTRGRKCCRRKK (ends and bridges not checked; cysteine pairing not given here) [Human β-defensin 3]
[4]
  Kd: 5.9 µM
